Data published in the Immune Epitope Database (IEDB).

Tests used:
HLA-A*26:03 = assay: IEDB peptide-MHC binding, purified MHC/competitive/fluorescence; filed as Kd, often an IC50 or EC50 that approximates it; ≥ and ≤ were set here for values at or beyond the usual limits of such assays
HLA-B*15:09 [1] = assay: as above
HLA-B*15:17 [2] = assay: as above; conditions: source organism: Vaccinia virus
HLA-B*15:01 [3] = assay: as above
HLA-B*39:01 = assay: as above
HLA-A*11:01 [4] = assay: as above
HLA-B*27:05 = assay: IEDB peptide-MHC binding, purified MHC/direct/fluorescence; filed as Kd, often an IC50 or EC50 that approximates it; ≥ and ≤ were set here for values at or beyond the usual limits of such assays
HLA-A*03:01 = assay: as above; conditions: source organism: Variola virus
HLA-A*31:01 [5] = assay: as above
HLA-B*48:01 = assay: as above
HLA-B*40:01 = assay: as above
HLA-B*51:01 = assay: as above; conditions: source organism: Camelpox virus M-96
HLA-B*57:01 = assay: as above
HLA-B*46:01 = assay: as above; conditions: source organism: Camelpox virus M-96
HLA-A*02:01 [6] = assay: as above
HLA-A*69:01 = assay: as above
HLA-B*07:02 = assay: as above
HLA-A*01:01 = assay: as above
HLA-B*58:01 = assay: as above
HLA-B*08:01 = assay: as above
HLA-B*18:01 = assay: as above
HLA-A*26:02 [7] = assay: IEDB peptide-MHC binding, purified MHC/competitive/fluorescence; filed as Kd, often an IC50 or EC50 that approximates it; ≥ and ≤ were set here for values at or beyond the usual limits of such assays
HLA-A*02:03 = assay: as above; conditions: source organism: Giardia lamblia ATCC 50803
HLA-A*02:01 [8] = assay: as above; conditions: source organism: Giardia lamblia ATCC 50803
HLA-A*30:01 = assay: as above
HLA-A*68:02 [9] = assay: as above
HLA-A*26:01 [10] = assay: IEDB peptide-MHC binding, purified MHC/direct/fluorescence; filed as Kd, often an IC50 or EC50 that approximates it; ≥ and ≤ were set here for values at or beyond the usual limits of such assays
HLA-B*15:17 [11] = assay: as above
HLA-A*11:01 [12] = assay: as above
HLA-A*26:02 [13] = assay: as above
HLA-A*31:01 [14] = assay: IEDB peptide-MHC binding, purified MHC/competitive/fluorescence; filed as Kd, often an IC50 or EC50 that approximates it; ≥ and ≤ were set here for values at or beyond the usual limits of such assays; conditions: source organism: Vaccinia virus WR
HLA-A*26:01 [15] = assay: as above; conditions: source organism: Vaccinia virus WR
HLA-B*35:01 = assay: as above; conditions: source organism: Vaccinia virus WR
HLA-B*15:03 = assay: IEDB peptide-MHC binding, purified MHC/competitive/radioactivity; filed as Kd, often an IC50 or EC50 that approximates it; ≥ and ≤ were set here for values at or beyond the usual limits of such assays; conditions: source organism: Vaccinia virus WR
HLA-B*15:01 [16] = assay: IEDB peptide-MHC binding, purified MHC/competitive/fluorescence; ≥ and ≤ were set here for values at or beyond the usual limits of such assays; conditions: source organism: Vaccinia virus WR
HLA-A*11:01 [17] = assay: as above; conditions: source organism: Vaccinia virus WR
HLA-B*15:09 [18] = assay: IEDB peptide-MHC binding, purified MHC/direct/fluorescence; filed as Kd, often an IC50 or EC50 that approximates it; ≥ and ≤ were set here for values at or beyond the usual limits of such assays; conditions: source organism: Variola virus
HLA-B*15:01 [19] = assay: as above; conditions: source organism: Camelpox virus M-96
HLA-B*08:03 = assay: as above; conditions: source organism: Variola virus
HLA-A*68:02 [20] = assay: as above; conditions: source organism: Camelpox virus M-96
[21] = source organism: Vaccinia virus
[22] = source organism: Camelpox virus M-96
[23] = source organism: Giardia lamblia ATCC 50803
[24] = source organism: Vaccinia virus WR
[25] = source organism: Francisella tularensis subsp. tularensis FSC198
[26] = source organism: Francisella tularensis subsp. holarctica LVS
[27] = source organism: Francisella tularensis subsp. tularensis FSC033
[28] = source organism: Escherichia coli O157:H7 str. EDL933

With PTIPEQKCM the Kd (HLA-A*26:03; source organism: Entamoeba histolytica HM-1:IMSS) was at least 20 µM.
RVATENIAV showed a Kd (HLA-B*15:09 [1]; [21]) of at least 20 µM, a Kd (HLA-B*15:17 [2]) of at least 20 µM and a Kd (HLA-B*15:01 [3]; [21]) of 0.445 µM. It also gave a Kd (HLA-B*39:01; [21]) of 2.81 µM, a Kd (HLA-A*11:01 [4]; [21]) of at least 20 µM and a Kd (HLA-B*27:05; [22]) of at least 20 µM. It also gave a Kd (HLA-A*03:01) of at least 20 µM, a Kd (HLA-A*31:01 [5]; [22]) of at least 20 µM and a Kd (HLA-B*48:01; [22]) of at least 20 µM. It also gave a Kd (HLA-B*40:01; [22]) of at least 20 µM, a Kd (HLA-B*51:01) of at least 20 µM and a Kd (HLA-B*57:01; [22]) of at least 20 µM. For the same sequence, the Kd (HLA-B*46:01) was at least 20 µM, the Kd (HLA-A*02:01 [6]; [22]) was 0.0227 µM and the Kd (HLA-A*69:01; [22]) was 0.156 µM. The Kd (HLA-B*07:02; [22]) was 0.226 µM, the Kd (HLA-A*01:01; [22]) was at least 20 µM and the Kd (HLA-B*58:01; [22]) was at least 20 µM. The Kd (HLA-B*08:01; source organism: Variola virus) was at least 20 µM and the Kd (HLA-B*18:01; [22]) was at least 20 µM.
Work on FMKVKFEAL yielded a Kd (HLA-A*26:02 [7]; [23]) of at least 20 µM, a Kd (HLA-A*02:03) of 0.0298 µM and a Kd (HLA-A*26:03; [23]) of at least 20 µM. The Kd (HLA-B*15:01 [3]; [23]) was 0.168 µM, the Kd (HLA-B*39:01; [23]) was at least 20 µM and the Kd (HLA-A*02:01 [8]) was 0.217 µM. It also gave a Kd (HLA-A*30:01; [23]) of 4.26 µM, a Kd (HLA-A*68:02 [9]; [23]) of 4.62 µM and a Kd (HLA-A*31:01 [5]; [23]) of at least 20 µM. It also gave a Kd (HLA-A*26:01 [10]; [23]) of at least 20 µM, a Kd (HLA-B*15:17 [11]; [23]) of at least 20 µM and a Kd (HLA-B*57:01; [23]) of at least 20 µM. It also gave a Kd (HLA-B*07:02; [23]) of at least 20 µM, a Kd (HLA-A*01:01; [23]) of at least 20 µM and a Kd (HLA-B*58:01; [23]) of at least 20 µM. For the same sequence, the Kd (HLA-A*11:01 [12]; [23]) was at least 20 µM and the Kd (HLA-B*18:01; [23]) was at least 20 µM.
Sequence STPAILHIM has a Kd (HLA-A*26:02 [13]; source organism: Listeria monocytogenes serotype 4b str. H7858) of 0.003 µM.
Sequence IQFMHEQGY has a Kd (HLA-A*26:02 [7]; [24]) of at least 20 µM, a Kd (HLA-A*31:01 [14]) of at least 20 µM and a Kd (HLA-A*26:01 [15]) of at least 20 µM. It also gave a Kd (HLA-B*35:01) of 0.104 µM, a Kd (HLA-A*30:01; [24]) of 0.0024 µM and a Kd (HLA-A*11:01 [4]; [24]) of at least 20 µM. For the same sequence, the Kd (HLA-B*15:03) was 0.00366 µM, the IC50 (HLA-B*15:01 [16]) was 6.83 µM and the IC50 (HLA-A*11:01 [17]) was at least 108 µM. For the same sequence, the Kd (HLA-B*27:05; [22]) was 0.929 µM, the Kd (HLA-B*48:01; [22]) was at least 20 µM and the Kd (HLA-B*15:09 [18]) was at least 20 µM. It also gave a Kd (HLA-B*15:17 [11]; [22]) of 0.29 µM, a Kd (HLA-B*15:01 [19]) of 0.052 µM and a Kd (HLA-B*57:01; [22]) of 1.96 µM. It also gave a Kd (HLA-B*46:01) of at least 20 µM, a Kd (HLA-A*02:01 [6]; [22]) of at least 20 µM and a Kd (HLA-A*69:01; [22]) of at least 20 µM. The Kd (HLA-B*07:02; [22]) was at least 20 µM, the Kd (HLA-A*01:01; [22]) was at least 20 µM and the Kd (HLA-B*58:01; [22]) was at least 20 µM. For the same sequence, the Kd (HLA-B*08:01; source organism: Variola virus) was at least 20 µM, the Kd (HLA-B*08:03) was at least 20 µM and the Kd (HLA-A*68:02 [20]) was at least 20 µM.
REMGIVDLL was tested, and the Kd (HLA-B*15:09 [1]; [25]) was at least 20 µM, the Kd (HLA-B*39:01; [25]) was 4 µM and the Kd (HLA-A*68:02 [9]; [25]) was at least 20 µM. For the same sequence, the Kd (HLA-B*27:05; [26]) was at least 20 µM, the Kd (HLA-A*26:02 [13]; [27]) was at least 20 µM and the Kd (HLA-A*31:01 [5]; [26]) was at least 20 µM. The Kd (HLA-B*48:01; [26]) was 0.0932 µM, the Kd (HLA-B*40:01; [26]) was 0.0014 µM and the Kd (HLA-B*15:17 [11]; [26]) was at least 20 µM. It also gave a Kd (HLA-B*57:01; [26]) of at least 20 µM, a Kd (HLA-A*02:01 [6]; [26]) of at least 20 µM and a Kd (HLA-A*69:01; [26]) of at least 20 µM. The Kd (HLA-B*07:02; [26]) was at least 20 µM, the Kd (HLA-A*01:01; [26]) was at least 20 µM and the Kd (HLA-B*58:01; [26]) was at least 20 µM. It also gave a Kd (HLA-B*08:01; [27]) of at least 20 µM, a Kd (HLA-A*11:01 [12]; [26]) of at least 20 µM and a Kd (HLA-B*18:01; [26]) of 0.514 µM.
With FTHREQLFM the Kd (HLA-A*26:02 [13]; [28]) was 0.028 µM and the Kd (HLA-A*26:01 [10]; [28]) was 0.059 µM.
